These results are taken from article PMC5297723.

The target of the test is recombinant CMG2-Fc-Apo (rCMG2-Fc-Apo) protein (human) (UniProt P58335). In words: non-reducing SDS-PAGE.

A word on the stoichiometry N: it is a count of units in the complex or per binding partner. As to “recombinant CMG2-Fc-Apo (rCMG2-Fc-Apo) protein (from UniProt P58335 34-318) (Fc fusion)”, the stoichiometry N was found to be 2.
